Biological target: T1, PUF4 RNA-binding domain (Saccharomyces cerevisiae, UniProt P25339 537-888)
T1 sequence: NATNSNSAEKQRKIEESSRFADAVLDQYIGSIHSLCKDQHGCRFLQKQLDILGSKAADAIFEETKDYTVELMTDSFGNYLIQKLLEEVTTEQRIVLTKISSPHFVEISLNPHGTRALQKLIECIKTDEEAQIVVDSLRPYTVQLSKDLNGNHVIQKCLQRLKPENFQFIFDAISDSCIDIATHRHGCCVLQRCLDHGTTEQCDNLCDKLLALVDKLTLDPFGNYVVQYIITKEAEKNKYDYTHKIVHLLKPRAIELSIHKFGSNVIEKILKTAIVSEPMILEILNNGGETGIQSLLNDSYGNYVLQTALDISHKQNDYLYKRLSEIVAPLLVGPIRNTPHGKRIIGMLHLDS
Experiment: Mg; RNA-MaP; 20 mM Na-HEPES pH 7.4, 30 mM KOAc, 0.75 mM MgCl2, 0.1% Tween-20, 5% glycerol, 0.1 mg/mL BSA, 2 mM DTT; 25 C; 0.0125-409.6 nM protein
Conditions: tags: N-His6-TEV cleaved; C-SNAP kept, Cy3B-labelled; label: tethered on chip by stalled RNA polymerase

B1: Ic_S4_P3E.1_K3.1_C3.1_H3.1_A3.1_[T5C]_[A6T]_F3.1_T3.1 (ssRNA)
RNA: UUUGACAACUGAUCGUUCUUUCUUGUACUUAUUCUUUCUCGAUCAGUUGUCUUU
Kd: 16.8 nM

B2: Ia_S4_P3E.1_K3.1_C3.1_H3.1_A3.1_F3.1_[A8C]_T3.1 (ssRNA)
RNA: UUUGACAACUGAUCGUUCUUUCUUGUAUAUCUUCUUUCUCGAUCAGUUGUCUUU
Kd: 12.3 nM

B3: Ia_S4_P3E.1_K3.1_C3.1_H3.1_[G2C]_A3.1_F3.1_T3.1 (ssRNA)
RNA: UUUGACAACUGAUCGUUCUUUCUUCUAUAUAUUCUUUCUCGAUCAGUUGUCUUU
Kd: 360 nM

B4: Ia_S4_P3E.1_K3.1_C3.1_H3.1_[T1G]_A3.1_F3.1_T3.1 (ssRNA)
RNA: UUUGACAACUGAUCGUUCUUUCUGGUAUAUAUUCUUUCUCGAUCAGUUGUCUUU
Kd: 1280 nM

B5: Ia_S4_P3E.1_K3.1_C3.1_H3.1_[T1A]_A3.1_F3.1_T3.1 (ssRNA)
RNA: UUUGACAACUGAUCGUUCUUUCUAGUAUAUAUUCUUUCUCGAUCAGUUGUCUUU
Kd: 819 nM

B6: Ib_S4_P4E.1_K4.1_C4.1_H4.1_A4.1_F4.1_[T8G]_[A9C]_T4.1 (ssRNA)
RNA: UUUGACAACUGAUCGUUCUUUCUUGUAUAUGCUUCUUUCUCGAUCAGUUGUCUUU
Kd: 20.6 nM

B7: Ib_S4_P4E.1_K4.1_C4.1_H4.1_[A4C]_A4.1_F4.1_[A9T]_T4.1 (ssRNA)
RNA: UUUGACAACUGAUCGUUCUUUCUUGUCUAUUUUUCUUUCUCGAUCAGUUGUCUUU
Kd: 268 nM

B8: Ib_S4_P4E.1_K4.1_C4.1_H4.1_A4.1_F4.1_[T8C]_[A9G]_T4.1 (ssRNA)
RNA: UUUGACAACUGAUCGUUCUUUCUUGUAUAUCGUUCUUUCUCGAUCAGUUGUCUUU
Kd: 17.1 nM

B9: Ib_S4_P4E.1_K4.1_C4.1_H4.1_[T3C]_A4.1_F4.1_[A9G]_T4.1 (ssRNA)
RNA: UUUGACAACUGAUCGUUCUUUCUUGCAUAUUGUUCUUUCUCGAUCAGUUGUCUUU
Kd: > 2300 nM

B10: Ib_S4_P4E.1_K4.1_C4.1_H4.1_A4.1_F4.1_[T8A]_[A9G]_T4.1 (ssRNA)
RNA: UUUGACAACUGAUCGUUCUUUCUUGUAUAUAGUUCUUUCUCGAUCAGUUGUCUUU
Kd: 9.97 nM

B11: Ib_S4_P4E.1_K4.1_C4.1_H4.1_[G2A]_A4.1_F4.1_[A9G]_T4.1 (ssRNA)
RNA: UUUGACAACUGAUCGUUCUUUCUUAUAUAUUGUUCUUUCUCGAUCAGUUGUCUUU
Kd: 329 nM

B12: Ib_S4_P4E.1_K4.1_C4.1_H4.1_[A4C]_A4.1_F4.1_[A9G]_T4.1 (ssRNA)
RNA: UUUGACAACUGAUCGUUCUUUCUUGUCUAUUGUUCUUUCUCGAUCAGUUGUCUUU
Kd: 252 nM

B13: Ib_S4_P4E.1_K4.1_C4.1_H4.1_A4.1_[T7G]_F4.1_[T8C]_T4.1 (ssRNA)
RNA: UUUGACAACUGAUCGUUCUUUCUUGUAUAGCAUUCUUUCUCGAUCAGUUGUCUUU
Kd: 51.1 nM

B14: Ic_S4_P4E.1_K4.1_C4.1_H4.1_A4.1_[T5C]_F4.1_[A9T]_T4.1 (ssRNA)
RNA: UUUGACAACUGAUCGUUCUUUCUUGUACAUUUUUCUUUCUCGAUCAGUUGUCUUU
Kd: 1.94 nM

B15: Ic_S4_P4E.1_K4.1_C4.1_H4.1_A4.1_F4.1_[T8A]_[A9C]_T4.1 (ssRNA)
RNA: UUUGACAACUGAUCGUUCUUUCUUGUAUAUACUUCUUUCUCGAUCAGUUGUCUUU
Kd: 6.29 nM

B16: Ib_S4_P4E.1_K4.1_C4.1_H4.1_[A4T]_A4.1_F4.1_[A9C]_T4.1 (ssRNA)
RNA: UUUGACAACUGAUCGUUCUUUCUUGUUUAUUCUUCUUUCUCGAUCAGUUGUCUUU
Kd: 406 nM

B17: Ib_S4_P4E.1_K4.1_C4.1_H4.1_[T3C]_A4.1_F4.1_[A9T]_T4.1 (ssRNA)
RNA: UUUGACAACUGAUCGUUCUUUCUUGCAUAUUUUUCUUUCUCGAUCAGUUGUCUUU
Kd: 1000 nM

B18: Ib_S4_P4E.1_K4.1_C4.1_H4.1_A4.1_[A6T]_F4.1_[T8C]_T4.1 (ssRNA)
RNA: UUUGACAACUGAUCGUUCUUUCUUGUAUUUCAUUCUUUCUCGAUCAGUUGUCUUU
Kd: 84.2 nM

B19: Ib_S4_P4E.1_K4.1_C4.1_H4.1_[T3C]_A4.1_F4.1_[A9C]_T4.1 (ssRNA)
RNA: UUUGACAACUGAUCGUUCUUUCUUGCAUAUUCUUCUUUCUCGAUCAGUUGUCUUU
Kd: > 2300 nM

B20: Ib_S4_P4E.1_K4.1_C4.1_H4.1_[T1G]_A4.1_F4.1_[A9G]_T4.1 (ssRNA)
RNA: UUUGACAACUGAUCGUUCUUUCUGGUAUAUUGUUCUUUCUCGAUCAGUUGUCUUU
Kd: 1710 nM

B21: Ib_S4_P4E.1_K4.1_C4.1_H4.1_A4.1_[A6C]_F4.1_[A9T]_T4.1 (ssRNA)
RNA: UUUGACAACUGAUCGUUCUUUCUUGUAUCUUUUUCUUUCUCGAUCAGUUGUCUUU
Kd: 10.8 nM

B22: Ib_S4_P4E.1_K4.1_C4.1_H4.1_A4.1_[T5A]_F4.1_[T8A]_T4.1 (ssRNA)
RNA: UUUGACAACUGAUCGUUCUUUCUUGUAAAUAAUUCUUUCUCGAUCAGUUGUCUUU
Kd: 27.4 nM

B23: Ic_S4_P4E.1_K4.1_C4.1_H4.1_A4.1_[T7G]_F4.1_[A9G]_T4.1 (ssRNA)
RNA: UUUGACAACUGAUCGUUCUUUCUUGUAUAGUGUUCUUUCUCGAUCAGUUGUCUUU
Kd: 13.5 nM

B24: Ib_S4_P4E.1_K4.1_C4.1_H4.1_A4.1_[T7C]_F4.1_[T8A]_T4.1 (ssRNA)
RNA: UUUGACAACUGAUCGUUCUUUCUUGUAUACAAUUCUUUCUCGAUCAGUUGUCUUU
Kd: 18.4 nM

B25: Ib_S4_P4E.1_K4.1_C4.1_H4.1_[G2C]_A4.1_F4.1_[T8C]_T4.1 (ssRNA)
RNA: UUUGACAACUGAUCGUUCUUUCUUCUAUAUCAUUCUUUCUCGAUCAGUUGUCUUU
Kd: 666 nM

B26: Ib_S4_P4E.1_K4.1_C4.1_H4.1_[A4G]_A4.1_F4.1_[A9C]_T4.1 (ssRNA)
RNA: UUUGACAACUGAUCGUUCUUUCUUGUGUAUUCUUCUUUCUCGAUCAGUUGUCUUU
Kd: 12.1 nM

B27: Ib_S4_P4E.1_K4.1_C4.1_H4.1_[A4G]_A4.1_F4.1_[T8C]_T4.1 (ssRNA)
RNA: UUUGACAACUGAUCGUUCUUUCUUGUGUAUCAUUCUUUCUCGAUCAGUUGUCUUU
Kd: 24.4 nM

B28: Ib_S4_P4E.1_K4.1_C4.1_H4.1_[A4C]_A4.1_F4.1_[A9C]_T4.1 (ssRNA)
RNA: UUUGACAACUGAUCGUUCUUUCUUGUCUAUUCUUCUUUCUCGAUCAGUUGUCUUU
Kd: 501 nM

B29: Ib_S4_P4E.1_K4.1_C4.1_H4.1_A4.1_[A6T]_F4.1_[A9C]_T4.1 (ssRNA)
RNA: UUUGACAACUGAUCGUUCUUUCUUGUAUUUUCUUCUUUCUCGAUCAGUUGUCUUU
Kd: 17.8 nM

B30: Ib_S4_P4E.1_K4.1_C4.1_H4.1_[T1G]_A4.1_F4.1_[T8A]_T4.1 (ssRNA)
RNA: UUUGACAACUGAUCGUUCUUUCUGGUAUAUAAUUCUUUCUCGAUCAGUUGUCUUU
Kd: 1410 nM

B31: Ib_S4_P4E.1_K4.1_C4.1_H4.1_A4.1_[T5A]_F4.1_[A9G]_T4.1 (ssRNA)
RNA: UUUGACAACUGAUCGUUCUUUCUUGUAAAUUGUUCUUUCUCGAUCAGUUGUCUUU
Kd: 19.7 nM

B32: Ib_S4_P4E.1_K4.1_C4.1_H4.1_A4.1_[A6C]_F4.1_[T8C]_T4.1 (ssRNA)
RNA: UUUGACAACUGAUCGUUCUUUCUUGUAUCUCAUUCUUUCUCGAUCAGUUGUCUUU
Kd: 22.1 nM

B33: Ib_S4_P4E.1_K4.1_C4.1_H4.1_[T1C]_A4.1_F4.1_[A9C]_T4.1 (ssRNA)
RNA: UUUGACAACUGAUCGUUCUUUCUCGUAUAUUCUUCUUUCUCGAUCAGUUGUCUUU
Kd: 1020 nM

B34: Ib_S4_P4E.1_K4.1_C4.1_H4.1_A4.1_[A6G]_F4.1_[T8C]_T4.1 (ssRNA)
RNA: UUUGACAACUGAUCGUUCUUUCUUGUAUGUCAUUCUUUCUCGAUCAGUUGUCUUU
Kd: 136 nM

B35: Ib_S4_P4E.1_K4.1_C4.1_H4.1_A4.1_[A6G]_F4.1_[A9C]_T4.1 (ssRNA)
RNA: UUUGACAACUGAUCGUUCUUUCUUGUAUGUUCUUCUUUCUCGAUCAGUUGUCUUU
Kd: 15.5 nM

B36: Ib_S4_P4E.1_K4.1_C4.1_H4.1_[T1A]_A4.1_F4.1_[A9G]_T4.1 (ssRNA)
RNA: UUUGACAACUGAUCGUUCUUUCUAGUAUAUUGUUCUUUCUCGAUCAGUUGUCUUU
Kd: 2230 nM

B37: Ib_S4_P4E.1_K4.1_C4.1_H4.1_[T1G]_A4.1_F4.1_[T8C]_T4.1 (ssRNA)
RNA: UUUGACAACUGAUCGUUCUUUCUGGUAUAUCAUUCUUUCUCGAUCAGUUGUCUUU
Kd: > 2300 nM

B38: Ib_S4_P4E.1_K4.1_C4.1_H4.1_A4.1_[A6T]_F4.1_[A9G]_T4.1 (ssRNA)
RNA: UUUGACAACUGAUCGUUCUUUCUUGUAUUUUGUUCUUUCUCGAUCAGUUGUCUUU
Kd: 8.2 nM

B39: Ic_S4_P4E.1_K4.1_C4.1_H4.1_A4.1_[A6C]_F4.1_[A9G]_T4.1 (ssRNA)
RNA: UUUGACAACUGAUCGUUCUUUCUUGUAUCUUGUUCUUUCUCGAUCAGUUGUCUUU
Kd: 11.3 nM

B40: Ib_S4_P4E.1_K4.1_C4.1_H4.1_A4.1_[T5A]_F4.1_[T8C]_T4.1 (ssRNA)
RNA: UUUGACAACUGAUCGUUCUUUCUUGUAAAUCAUUCUUUCUCGAUCAGUUGUCUUU
Kd: 78.4 nM

B41: Ib_S4_P4E.1_K4.1_C4.1_H4.1_A4.1_[T7A]_F4.1_[T8C]_T4.1 (ssRNA)
RNA: UUUGACAACUGAUCGUUCUUUCUUGUAUAACAUUCUUUCUCGAUCAGUUGUCUUU
Kd: 19.6 nM

B42: Ib_S4_P4E.1_K4.1_C4.1_H4.1_[T1C]_A4.1_F4.1_[T8C]_T4.1 (ssRNA)
RNA: UUUGACAACUGAUCGUUCUUUCUCGUAUAUCAUUCUUUCUCGAUCAGUUGUCUUU
Kd: 652 nM

B43: Ib_S4_P4E.1_K4.1_C4.1_H4.1_[T1A]_A4.1_F4.1_[T8A]_T4.1 (ssRNA)
RNA: UUUGACAACUGAUCGUUCUUUCUAGUAUAUAAUUCUUUCUCGAUCAGUUGUCUUU
Kd: 1680 nM

B44: Ib_S4_P4E.1_K4.1_C4.1_H4.1_[A4C]_A4.1_F4.1_[T8A]_T4.1 (ssRNA)
RNA: UUUGACAACUGAUCGUUCUUUCUUGUCUAUAAUUCUUUCUCGAUCAGUUGUCUUU
Kd: 458 nM

B45: Ib_S4_P4E.1_K4.1_C4.1_H4.1_A4.1_[T5C]_F4.1_[T8C]_T4.1 (ssRNA)
RNA: UUUGACAACUGAUCGUUCUUUCUUGUACAUCAUUCUUUCUCGAUCAGUUGUCUUU
Kd: 8.87 nM

B46: Ib_S4_P4E.1_K4.1_C4.1_H4.1_A4.1_[T7A]_F4.1_[T8A]_T4.1 (ssRNA)
RNA: UUUGACAACUGAUCGUUCUUUCUUGUAUAAAAUUCUUUCUCGAUCAGUUGUCUUU
Kd: 29.8 nM

B47: Ib_S4_P4E.1_K4.1_C4.1_H4.1_[G2C]_A4.1_F4.1_[A9C]_T4.1 (ssRNA)
RNA: UUUGACAACUGAUCGUUCUUUCUUCUAUAUUCUUCUUUCUCGAUCAGUUGUCUUU
Kd: 1530 nM

B48: Ib_S4_P4E.1_K4.1_C4.1_H4.1_[A4G]_A4.1_F4.1_[T8A]_T4.1 (ssRNA)
RNA: UUUGACAACUGAUCGUUCUUUCUUGUGUAUAAUUCUUUCUCGAUCAGUUGUCUUU
Kd: 6.19 nM

Source: paper PMC9352680, “A comprehensive thermodynamic model for RNA binding by the Saccharomyces cerevisiae Pumilio protein PUF4”
